Reference: article PMC4252830 (Insect biochemistry and molecular biology, 2014)

Tests used:
[1] = molecular target: T1, AgEH (epoxide hydrolase from Anopheles gambiae) (Anopheles gambiae, UniProt Q7PZL6); experiment: inhibition of […],15-EET hydrolysis by recombinant AgEH in Sf-9 microsomes; format: biochemical
T1 sequence (Q7PZL6 1-340): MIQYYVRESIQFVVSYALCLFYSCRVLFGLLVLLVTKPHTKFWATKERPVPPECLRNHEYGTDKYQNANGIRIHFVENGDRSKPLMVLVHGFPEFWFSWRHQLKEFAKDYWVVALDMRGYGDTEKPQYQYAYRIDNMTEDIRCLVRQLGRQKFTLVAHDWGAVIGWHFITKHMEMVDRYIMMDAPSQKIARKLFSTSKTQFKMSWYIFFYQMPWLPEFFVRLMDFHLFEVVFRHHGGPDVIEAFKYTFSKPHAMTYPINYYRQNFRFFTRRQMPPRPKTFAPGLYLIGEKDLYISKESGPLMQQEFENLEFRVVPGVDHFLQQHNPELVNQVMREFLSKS

[2] = molecular target: T1, AgEH (epoxide hydrolase from Anopheles gambiae); experiment: % activity remaining on t-DPPO, recombinant AgEH in Sf-9 microsomes; format: cell-based; conditions: read-out: t-DPPO / 500nM
[3] = substrate: COC(=O)/C=C(\C)CC/C=C(\C)CC[C@H]1OC1(C)C; format: biochemical, Anopheles gambiae
[4] = substrate: c1ccc(C[C@@H]2O[C@H]2c2ccccc2)cc1; format: biochemical, Anopheles gambiae
[5] = substrate: CCCCC/C=C\CC1OC1CCCCCCCC(=O)O; experiment: Michaelis-Menten kinetics, LC-MS/MS, recombinant AgEH in Sf-9 microsomes; format: biochemical, Anopheles gambiae
[6] = substrate: CCCCCC1OC1C/C=C\C/C=C\C/C=C\CCCC(=O)O; experiment: as above; format: biochemical, Anopheles gambiae

`O=C(O)CCCCCCCCCCCNC(=O)NC12CC3CC(CC(C3)C1)C2` [compound 1, 12-(3-adamantan-1-yl-ureido) dodecanoic acid] was tested. Which IC50 [1] did it give?
The IC50 was roughly 60 nM.

Which activity at 0.5 µM [2] does the source give for `O=C(Nc1ccc(OC(F)(F)F)cc1)N[C@H]1CC[C@H](Oc2ccc(C(=O)O)cc2)CC1` [compound 2, trans-4-{4-[3-(4-trifluoromethoxy-phenyl)-ureido]-cyclohexyloxy}-benzoic acid] here?
Its activity at 0.5 µM is 12.5%.

B1: AgEH (epoxide hydrolase from Anopheles gambiae) (Anopheles gambiae) (protein)
chain: T1 sequence (Q7PZL6 1-340)
What does the source list for B1?
Km [3]: 9.8 ± 2.0 µM; Vmax [3]: 1.3 µmol/min/mg; Vmax/Km [3]: 130000 µL/min/mg; Km [4]: 30.5 ± 5.0 µM; Vmax [4]: 1.2 µmol/min/mg; Vmax/Km [4]: 41000 µL/min/mg; Km [5]: 7.0 ± 0.6 µM; Vmax [5]: 1.5 µmol/min/mg; Vmax/Km [5]: 210000 µL/min/mg; Km [6]: 3.0 ± 0.3 µM; Vmax [6]: 1.4 µmol/min/mg; Vmax/Km [6]: 460000 µL/min/mg
